Test results as given in patent US20110311515A1.

Substrate: F protein of RSV (hRSV strain Long LM-2) (hRSV strain Long) (UniProt P12568)
Test: cell-based or functional assay

Chain of F protein of RSV (hRSV strain Long LM-2) (hRSV strain Long) (P12568 26-574): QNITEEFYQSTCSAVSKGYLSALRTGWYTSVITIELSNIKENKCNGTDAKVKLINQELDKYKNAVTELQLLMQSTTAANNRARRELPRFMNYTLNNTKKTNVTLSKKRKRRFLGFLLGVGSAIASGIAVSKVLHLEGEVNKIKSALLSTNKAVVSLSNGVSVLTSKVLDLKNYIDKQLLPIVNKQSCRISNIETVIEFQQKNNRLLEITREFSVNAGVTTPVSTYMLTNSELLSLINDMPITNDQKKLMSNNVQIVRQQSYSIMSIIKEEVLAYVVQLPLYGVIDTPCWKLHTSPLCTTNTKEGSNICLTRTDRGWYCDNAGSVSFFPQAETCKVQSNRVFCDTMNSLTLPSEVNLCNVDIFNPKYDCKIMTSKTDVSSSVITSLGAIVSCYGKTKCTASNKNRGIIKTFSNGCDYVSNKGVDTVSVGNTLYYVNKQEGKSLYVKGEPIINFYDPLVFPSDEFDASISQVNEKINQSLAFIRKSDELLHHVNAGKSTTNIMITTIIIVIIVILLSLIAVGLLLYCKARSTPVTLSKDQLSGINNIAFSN

| Binder | IC50, neutralization of RSV infection, Long strain |
| --- | --- |
| building block of RSV407 (monovalent Nanobody) (VHH) VHH: EVQLVESGGGLVQAGGSLSISCAASGGSLSNYVLGWFRQAPGKEREFVAAINWRGDITIGPPNVEGRFTISRDNAKNTGYLQMNSLAPDDTAVYYCGAGTPLNPGAYIYDWSYDYWGRGTQVTVSS | 50 to 100 nM |
| RSV407 (VHH) EVQLVESGGGLVQAGGSLSISCAASGGSLSNYVLGWFRQAPGKEREFVAAINWRGDITIGPPNVEGRFTISRDNAKNTGYLQMNSLAPDDTAVYYCGAGTPLNPGAYIYDWSYDYWGRGTQVTVSSGGGGSGGGGSGGGGSEVQLVESGGGLVQAGGSLSISCAASGGSLSNYVLGWFRQAPGKEREFVAAINWRGDITIGPPNVEGRFTISRDNAKNTGYLQMNSLAPDDTAVYYCGAGTPLNPGAYIYDWSYDYWGRGTQVTVSSGGGGSGGGGSGGGGSEVQLVESGGGLVQAGGSLSISCAASGGSLSNYVLGWFRQAPGKEREFVAAINWRGDITIGPPNVEGRFTISRDNAKNTGYLQMNSLAPDDTAVYYCGAGTPLNPGAYIYDWSYDYWGRGTQVTVSSAAAEQKLISEEDLNGAAHHHHHH | 0.1 nM |
